Several values for one entry are separate records, joined by “and”; a condition that tells them apart may be missing. Equal values may be shown once.
T1: human OX40 expressed on cells (human, UniProt P43489 29-277)
T1 construct: also called CD134; TNFRSF4
T1 sequence: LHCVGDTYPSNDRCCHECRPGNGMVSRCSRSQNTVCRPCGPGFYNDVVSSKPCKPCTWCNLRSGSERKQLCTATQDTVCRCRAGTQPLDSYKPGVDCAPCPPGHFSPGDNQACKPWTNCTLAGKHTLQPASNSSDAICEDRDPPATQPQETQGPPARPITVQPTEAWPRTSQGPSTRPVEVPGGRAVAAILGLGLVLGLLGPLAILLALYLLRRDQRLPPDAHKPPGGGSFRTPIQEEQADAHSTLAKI

T2: recombinant cynomolgus monkey OX40 (Acro Biosystems, cat. no. OX0-C5220) (cynomolgus monkey (Macaca fascicularis), UniProt P43489 29-214 (human entry))
T2 construct: bought protein; also called Cyno OX40
T2 chain: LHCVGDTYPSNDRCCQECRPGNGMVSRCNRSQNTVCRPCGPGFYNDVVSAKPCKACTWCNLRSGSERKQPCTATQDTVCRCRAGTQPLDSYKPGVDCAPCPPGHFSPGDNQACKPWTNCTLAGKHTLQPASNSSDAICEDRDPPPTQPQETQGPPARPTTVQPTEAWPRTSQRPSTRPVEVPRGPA


What was measured:
[1] = molecular target: T1, human OX40 expressed on cells; test: flow cytometry, activated human CD4+ T cells, donor 2
Protocol: Healthy human donor PBMCs were purified essentially as described in Example 7. The cell concentration was adjusted to 2×10⁶ cells per mL (final concentration) in assay medium and plated in 6-well plates (Greiner, cat. no. 657160). PBMCs were stimulated with 0.3 μg/mL anti-CD3 ([…] Technologies, cat. no. 60011) and 0.5 μg/mL anti-CD28 antibodies (BioLegend, cat. no. 302934) and cultured for two days at 37° C., 5% CO₂. Next, the PBMCs were harvested, counted and brought to a concentration of 2×10⁶ cells per mL in FACS buffer 1 (DPBS with 2% heat-inactivated FBS and 2 mM ethylenediaminetetraacetic acid [EDTA]). […] After 60 min at RT, the cells were prepared for flow cytometric analyses. To this end, the cells were washed twice with 150 μL FACS buffer 1 and 30 μL/well cell-surface antibody mix (Table 9) in FACS buffer 1 containing antibody against human Fcγ antibody (Table 9) and fixable viability dye eFluor780 (1:1,500) was added. The staining procedures were carried out at 4° C. for 15-20 min protected from light. Stained cells were washed twice with 120-150 μL FACS buffer 1 (5 min, 460×g, RT) and resuspended in 60-100 μL FACS buffer 1 for direct flow cytometric analyses. Flow cytometric data were acquired on a FACSymphony A3 and analyzed with FlowJo software.

[2] = molecular target: T1, human OX40 expressed on cells; test: flow cytometry, activated human CD4+ T cells, with 2 µg/mL sOX40L, n=3
Protocol: (§1) Stimulated PBMCs were pelleted, resuspended in FACS buffer 2 (DPBS with 2% heat-inactivated FBS [Sigma-Aldrich, cat. no. F7524] and 2 mM EDTA [Sigma-Aldrich, cat. no. 03690]), and seeded (100,000 cells/well) in round-bottom 96-well plates (VWR International GmbH, cat. no. 734-197). […] Next, cells were washed twice in FACS buffer, and incubated with 30 μL of the antibody panel described in Table 11 diluted in FACS buffer 2 containing 1:1,500 Fixable Viability Stain eFluor 780 at 4° C. for 20 min, protected from light. The cells were subsequently washed twice with 120-150 μL FACS buffer 2 and measured on a BD FACSCelesta flow cytometer using a BD High Throughput sampler and subsequent analysis was done using FlowJo software.

[3] = molecular target: T1, human OX40 expressed on cells; test: flow cytometry, activated human CD4+ T cells, mean of 3 donors; CD4+ T cells
[4] = molecular target: T1, human OX40 expressed on cells; test: flow cytometry, activated human CD4+ T cells, without sOX40L, n=3
[5] = molecular target: T1, human OX40 expressed on cells; test: flow cytometry, activated human CD4+ and CD8+ T cells, 2 µg/mL sOX40L
Protocol: as §1

[6] = molecular target: T1, human OX40 expressed on cells; test: flow cytometry, activated human CD8+ T cells, without sOX40L, n=3
Protocol: as §1

[7] = molecular target: T2, recombinant cynomolgus monkey OX40 …; test: BLI, Ab on AHC sensor, OX40 analyte; * binding observed, less reliable fit
Protocol: Experiments were carried out while shaking at 1,000 RPM at 30° C. […] Next, AHC sensors were loaded with antibody (1 μg/mL in Sample Diluent) for 600 s. After a baseline measurement in sample diluent (100 s), the association (200 s) and dissociation (1,000 s) of human OX40 (Acro Biosystems, cat. no. OX0-H5224), and cynomolgus monkey OX40 (Acro Biosystems, cat. no. OX0-C5220) was determined using a concentration range of 0.78 to 800 nM with 2-fold dilution steps.
The theoretical molecular masses of the antigens based on the amino acid sequences were used for calculations. For each antibody, a reference sensor was used which was incubated with Sample Diluent instead of antigen. AHC sensors were regenerated by exposure to 10 mM glycine buffer pH 1.7 for 5 s, followed by neutralization in Sample Diluent for 5 s; both steps were repeated twice. Subsequently sensors were loaded again with antibody for the next cycle of kinetic measurements.
Data were acquired using Data Acquisition Software v12.0 (Sartorius) and analyzed with Data Analysis Software v12.0 (Sartorius). Data traces were corrected per antibody by subtraction of the reference sensor. The Y-axis was aligned to the last 10 s of the baseline and Interstep Correction alignment to dissociation as well as Savitzky-Golay filtering were applied. Data traces with a response <0.05 nm were excluded from analysis. […] The data was fitted with the 1:1 model using a window of interest for the association of 200 s and dissociation times set at 50 s, 200 s and 1,000 s. The dissociation time was chosen based upon R² value, visual inspection of the curve and at least 5% signal decay during the dissociation step.

| EC50 [1] [µg/mL] | EC50 [2] | EC50 [3] [nM] | EC50 [4] | fold change of EC50 in the presence of sOX40L against its absence [5] [fold] | EC50 [6] | Kd [7] [nM] | koff [7] [s⁻¹] | kon [7] [M⁻¹ s⁻¹] | Binder |
| --- | --- | --- | --- | --- | --- | --- | --- | --- | --- |
| 0.0167 | 0.054 µg/mL and 0.359 nM | 0.14 | 0.019 µg/mL and 0.13 nM | ~3 | 0.017 µg/mL and 0.114 nM | – | – | – | IgG1-CD134-003-HC6LC2-P329R-E345R (antibody, humanized; human IgG1 with P329R and E345R (Eu numbering), kappa; also called IgG1-CD134-003-HC6LC2-RR) heavy: not shown light: AAVLTQSPSSLSASVGDRVTITCQSSQIVVNNNFLSWYQQKPGKAPKLLIYDASNLASGVPDRFSGSGSGTDFTFTISSLQPEDIATYYCLGGYDDDAENAFGGGTKVEIKRTVAAPSVFIFPPSDEQLKSGTASVVCLLNNFYPREAKVQWKVDNALQSGNSQESVTEQDSKDSTYSLSSTLTLSKADYEKHKVYACEVTHQGLSSPVTKSFNRGEC |
| – | – | – | – | – | – | 180 | 0.018 | 98000 | IgG1-CD134-012 (antibody, rabbit-human chimeric IgG1) heavy: not shown light: DIVMTQTPASVEAAVGGTVTIKCQASENIYSSLAWYQQKPGQPPKLLIYRTSTLASGVPSRFKGSGSGTQFTLTISDLESDDAATYYCQSYYHNSGGGYDYGFGGGTEVVAKRTVAAPSVFIFPPSDEQLKSGTASVVCLLNNFYPREAKVQWKVDNALQSGNSQESVTEQDSKDSTYSLSSTLTLSKADYEKHKVYACEVTHQGLSSPVTKSFNRGEC |

Source: US20240400703A1 (Genmab, published 2024)
